The target of data set [1] is T1, XPF C225R;ERCC1 wild type (hsERCC1) (Xenopus laevis;Homo sapiens?, UniProt A0A8J0PXV9;P07992 1-897;1-297, C225R|).
T1 sequence 1: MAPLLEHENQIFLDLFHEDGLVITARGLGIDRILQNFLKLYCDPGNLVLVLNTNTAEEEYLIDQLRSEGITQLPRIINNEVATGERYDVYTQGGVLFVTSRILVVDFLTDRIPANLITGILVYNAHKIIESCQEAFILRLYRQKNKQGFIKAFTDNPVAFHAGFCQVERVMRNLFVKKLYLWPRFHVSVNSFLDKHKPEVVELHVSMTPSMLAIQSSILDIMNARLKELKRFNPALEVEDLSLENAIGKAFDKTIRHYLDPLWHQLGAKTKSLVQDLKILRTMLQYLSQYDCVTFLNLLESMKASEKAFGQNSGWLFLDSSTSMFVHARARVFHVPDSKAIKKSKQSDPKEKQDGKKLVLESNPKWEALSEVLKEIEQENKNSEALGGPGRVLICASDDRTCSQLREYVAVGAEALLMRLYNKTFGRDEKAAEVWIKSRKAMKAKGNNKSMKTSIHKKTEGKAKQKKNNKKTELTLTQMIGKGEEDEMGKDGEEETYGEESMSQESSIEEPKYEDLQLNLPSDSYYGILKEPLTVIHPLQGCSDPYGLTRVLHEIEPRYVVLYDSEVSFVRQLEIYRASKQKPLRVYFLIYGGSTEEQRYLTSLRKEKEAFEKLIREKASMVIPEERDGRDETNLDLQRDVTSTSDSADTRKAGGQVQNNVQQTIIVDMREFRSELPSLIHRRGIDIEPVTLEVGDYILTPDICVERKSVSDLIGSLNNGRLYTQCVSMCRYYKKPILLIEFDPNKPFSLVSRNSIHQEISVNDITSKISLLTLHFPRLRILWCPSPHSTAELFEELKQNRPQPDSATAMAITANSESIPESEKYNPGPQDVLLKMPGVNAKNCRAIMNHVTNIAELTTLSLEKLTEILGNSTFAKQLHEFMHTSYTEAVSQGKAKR
T1 sequence 2: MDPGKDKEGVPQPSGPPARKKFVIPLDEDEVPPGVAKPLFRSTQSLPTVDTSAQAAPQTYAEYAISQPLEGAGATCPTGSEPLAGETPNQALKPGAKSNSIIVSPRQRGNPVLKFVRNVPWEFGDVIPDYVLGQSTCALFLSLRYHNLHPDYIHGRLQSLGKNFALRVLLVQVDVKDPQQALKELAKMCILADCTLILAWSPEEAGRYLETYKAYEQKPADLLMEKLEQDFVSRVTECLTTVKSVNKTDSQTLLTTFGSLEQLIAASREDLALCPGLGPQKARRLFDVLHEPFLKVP
Briefly: fluorescence anisotropy; 2 mM Ca2+; comparable to wild type; 25 mM Hepes pH 8.0, 15% glycerol, 0.1 mg/ml BSA, 2 mM CaCl2, 10 nM DNA, 1 h at room temperature. The conditions noted are these: protein: recombinant;recombinant; tags: FLAG;His; copies: 1;1; label: 5'-FAM on F1; three strands 1:1:1. (In general: Fluorescence polarisation rises when a labelled molecule tumbles more slowly, as on binding a larger partner.)

Data set [2] deals with T2, XPF R670S;ERCC1 wild type (hsERCC1) (Xenopus laevis;Homo sapiens?, UniProt A0A8J0PXV9;P07992 1-897;1-297, R670S|).
T2 sequence 1: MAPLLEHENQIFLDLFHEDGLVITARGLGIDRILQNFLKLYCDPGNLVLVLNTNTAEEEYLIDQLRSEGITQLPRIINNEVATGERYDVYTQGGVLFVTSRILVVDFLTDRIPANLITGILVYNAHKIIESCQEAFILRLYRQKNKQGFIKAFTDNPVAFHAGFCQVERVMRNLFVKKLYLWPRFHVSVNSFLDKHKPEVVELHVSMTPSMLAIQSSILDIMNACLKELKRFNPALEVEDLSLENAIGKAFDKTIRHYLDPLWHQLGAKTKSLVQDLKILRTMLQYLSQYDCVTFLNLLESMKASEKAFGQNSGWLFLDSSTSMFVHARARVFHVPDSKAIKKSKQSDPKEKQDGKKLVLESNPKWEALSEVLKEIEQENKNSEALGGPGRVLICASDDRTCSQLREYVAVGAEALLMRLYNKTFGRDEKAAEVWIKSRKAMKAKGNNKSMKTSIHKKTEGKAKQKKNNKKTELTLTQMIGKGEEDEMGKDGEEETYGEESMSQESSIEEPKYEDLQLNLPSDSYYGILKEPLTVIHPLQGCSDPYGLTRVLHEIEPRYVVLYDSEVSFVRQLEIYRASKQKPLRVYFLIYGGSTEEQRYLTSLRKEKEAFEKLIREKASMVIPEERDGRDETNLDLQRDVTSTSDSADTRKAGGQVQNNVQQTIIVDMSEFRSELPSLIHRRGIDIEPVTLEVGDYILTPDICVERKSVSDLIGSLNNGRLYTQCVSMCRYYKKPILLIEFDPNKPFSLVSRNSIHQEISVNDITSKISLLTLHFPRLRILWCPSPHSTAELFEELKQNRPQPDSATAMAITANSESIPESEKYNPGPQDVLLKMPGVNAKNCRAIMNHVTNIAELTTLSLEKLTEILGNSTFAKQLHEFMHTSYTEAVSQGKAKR
T2 sequence 2: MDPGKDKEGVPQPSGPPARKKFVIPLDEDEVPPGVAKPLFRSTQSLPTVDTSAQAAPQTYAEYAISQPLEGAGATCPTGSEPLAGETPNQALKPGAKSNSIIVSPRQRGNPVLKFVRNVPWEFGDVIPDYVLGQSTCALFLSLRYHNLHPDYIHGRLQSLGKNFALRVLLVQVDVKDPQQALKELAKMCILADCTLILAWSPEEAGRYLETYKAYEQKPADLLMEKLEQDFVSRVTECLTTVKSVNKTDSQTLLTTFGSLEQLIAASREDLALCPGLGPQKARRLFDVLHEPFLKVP
Described as above. The following applies: protein: recombinant;recombinant; tags: FLAG;His; copies: 1;1; label: 5'-FAM on F1; three strands 1:1:1.

B1: 3' flap DNA substrate (F1+F2+F3) (dsDNA)
DNA 1: CGCGATGCGGATCCAA
DNA 2: CCTAGACTTAAGAGGCCAGACTTGGATCCGCATCGC
DNA 3: GGCCTCTTAAGTCTAGG
In the case of B1, the binding result in data set [1] and in data set [2] was “binds” each time.

Values taken from article PMC5510004, “Recruitment and positioning determine the specific role of the XPF‐ERCC1 endonuclease in interstrand crosslink repair”.
